The text below walks through data of the DeepSol protein solubility set.

This data set in a line: soluble on expression in E. coli; label from the status in PepcDB or PDB records.
Take “MEVKIFNTQDVQDFLRVASGLEQEGGNPRVKQIIHRVLSDLYKAIEDLNITSDEYWAGVAYLNQLGANQEAGLLSPGLGFDHYLDMRMDAEDAALGIENATPRTIEGPLYVAGAPESVGYARMDDGSDPNGHTLILHGTIFDADGKPLPNAKVEIWHANTKGFYSHFDPTGEQQAFNMRRSIITDENGQYRVRTILPAGYGCPPEGPTQQLLNQLGRHGNRPAHIHYFVSADGHRKLTTQINVAGDPYTYDDFAYATREGLVVDAVEHTDPEAIKANDVEGPFAEMVFDLKLTRLVDGVDNQVVDRPRLAV”: the “soluble on expression in E. coli” value is listed as “soluble”.
The value for “MGSDKIHHHHHHVQTPALIIVTGHPATGKTTLSQALATGLRLPLLSKDAFKEVMFDGLGWSDREWSRRVGATAIMMLYHTAATILQSGQSLIMESNFRVDLDTERMQNLHTIAPFTPIQIRCVASGDVLVERILSRIAQGARHPGHCDDRSPADLELVRSRGDIPPLPLGGPLLTVDTTFPEQIDMNAIVQWVRQHLQSGTAFL” was “not soluble”; that for “MGSDKIHHHHHHMRFDLIDLRLFLHILETGSITHGAARANMSLPSASARLRGMEDALGMPLLERGRRGVESTPTGDTLAHHARLVLGQIERMQGELGEHQEGRKACIRLWTNTAAITEFLPAAIGLFLRDHPNVQIDLKERQSSETVKAVLSGAAEIGIISDAVEHGALQTFPFAIDKLVLVTSRDDALATCRRTTLAEVADREFIGLSADSALQAYLGERALLAGQPLSFRTHVRTFDAVCCMVDQGAGVGIVPATAAKRYRGTPGIRTIELTDSWATRQLLICMRDLNAMARPEKALVRHLAGI” was “not soluble”; that for “MGSDKIHHHHHHMPVMDRAAMRTMATLQPSCMRWLCTTPSILDAAKAGWPISWAATPDSPATVTIRQFQASTCCRKKTFDVVVNTDVLEHVPEAELDCVLRDFRKLSTNAIIIPHLAKATRILPNGENAHCTIKTPSEWAQVFKRHYAHVYELPHHSAVHALFLCGDQERDVTALRGILEQYVAAKNEVRHHLLPLGKRIEKAIRLIRGKDINR” was “not soluble”.
Regarding “MGSDKIHHHHHHMAAPDTPPDSPPPISAVEMPSGKDAGTENFPVGSVLLPARLRPHVARFYAFARAIDDIADSPDLDAAAKIDRLQGFEEAITGRDTTDPAYAKGHALRVSLEATGVPAIHGVELIAAFKQDAVKGRYATWAEMMDYCRLSAAPVGRYLIDLHGGSRAGYASSDALCVALQVINHLQDCQDDFRVLDRVYLPADWLAAEGASVSDLDRAACTPGLRRVLDRCLEGTRRLLDAARPLPGDIIDRRLGLEAAVIVSIAQTLTGRLARQDPLAQRVKLGKAATAFCAARACAAYLMVPGAYR”, the “soluble on expression in E. coli” value is “not soluble”.
In the case of “MSLESRPLHVVLGNEACDLDSTVSALALAFYLAKTTEAEEVFVPVLNIKRSELPLRGDIVFFLQKVHIPESILIFRDEIDLHALYQAGQLTLILVDHHILSKSDTALEEAVAEVLDHRPIEPKHCPPCHVSVELVGSCATLVTERILQGAPEILDRQTAALLHGTIILDCVNMDLKIGKATPKDSKYVEKLEALFPDLPKRNDIFDSLQKAKFDVSGLTTEQMLRKDQKTIYRQGVKVAISAIYMDLEAFLQRSNLLADLHAFCQAHSYDVLVAMTIFFNTHNEPVRQLAIFCPHVALQTTICEVLERSHSPPLKLTPASSTHPNLHAYLQGNTQVSRKKLLPLLQEALSAYFDSMKIPSGQPETADVSREQVDKELDRASNSLISGLSQDEGHHHHHH”, the “soluble on expression in E. coli” value is recorded as “not soluble”.
Next, “MSLKVAKDLVVSLAYQVRTEDGVLVDESPVSAPLDYLHGHGSLISGLETALEGHEVGDKFDVAVGANDAYGQYDENLVQRVPKDVFMGVDELQVGMRFLAETDQGPVPVEITAVEDDHVVVDGNHMLAGQNLKFNVEVVAIREATEEELAHGHVHGAHDHHHDHDHDGCCGGHGHDHGHEHGGEGCCGGKGNGGCGCEGGSHHHHHH”: “soluble”.
The value for “APVISQISKDVVASVGDSVEFNCTVEEVGQLSVSWAKRPSESDTNSVVLSMRNILSLPDQRYNVTVTEGPKTGSAIYTFRIQNIEVSDMGPYECQVLVSATEKVTKKLSLQIKTPPVIAENTPKSTLVTEGQNLELTCHANGFPKPTISWAREHNAVMPAGGHLLAEPTLRIRSVHRMDRGGYYCIAQNGEGQPDKRLIRVEVEFRPQIAVQRPKIAQMVSHSAELECSVQGYPAPTVVWHKNGVPLQSSRHHEVANTASSSGTTTSVLRIDSVGEEDFGDYYCNATNKLGHADARLHLFQTVIPVPSLS” was “soluble”.
For the sequence “GQYDYIKVAVSLMGSAYYVDFAKELSKYALAQGLTFPYDVDERILALQKYDLTQNITKINNRPLLLWHGKKDDVVPFAYSEKLYQTLVEESLADNVEFIIDDNAKHKVSVEGMLQGVSFFEKFL”, the “soluble on expression in E. coli” value is recorded as “not soluble”.
The value for “MAFEMAPADPTLDLNMQLTKLGHGLLSGKYSMPATQKDATTGDPRQEGIPPRMFKNVIAASHAEFSSMRQQDALDFFLHLVGKVERASNTTPDLDPSRSFKFGIEEKILCPSGKVGYNKREDCILSLNIPLHEATNKDELEAFHKQKAGKGLEENDMRSSDEIVRPRVPLEACLANFASSEPIEDYYSSALKGMTTAIKTTGLTSFPDYLVLHMRKFVMEEGWVPKKLDVYIDVPDVIDISHMRSKGLQPGEELLPDGVPEEVMESAQPVANEEIVAQLVSMGFSQLHCQKAAINTSNAGVEEAMNWLLSHMDDPDIDAPISHQTSDIDQSSVDTLLSFGFAEDVARKALKASGGDIEKATDWVFNNPNASVSDMDVSSSNSAQTPAQSGLPDGGGKYKLFGIVSHMGTSVHCGHYVAHILKEGRWVIFNDDKVGISTDPPKDMGYVYFFQRLD” was “soluble”; that for “MGSDKIHHHHHHMAHLPQMKIPATYMRGGTSKGVFFSLTDLPAAAQVAGAARDAILLRVIGSPDPYGKHTDGMGGATSSTSKTVILSKSTQADHDVDYLFGQVSIDKPFVDWSGNCGNLTAAVGSFAISNGLIDPSRVPENGTAIVRIWQANIHKTIIAHVPITNGEVQETGDFELDGVTFPAAEVQVEFLDPADGDGAMFPTGNVVDELNVPGVGTFKATMINAGIPTIFINAADIQYQGTELQDDINNDDKALAMFETIRAYGAVKMGLIKHIDEAVARQHTPKVAFVAPAANYISSSGKAVNTDDIDLVVRALSMGKLHHAMMGTAAVAIGTAAAIPGTLVNLAAGGGELSAVRFGHPSGTLRVGAQAALVQGQWQVKKAIMSRSARVLMEGKVSIPQ” was “not soluble”.
“MSLAPRLKLRDITFFERPVQFARPFRFGAITMNATTQLFVRVEIEVEGRGSAVGASAELLVPKWFDKRPEFSPAQTVDGLRRSLEIARGLYLARTGFLTAFDLHAACIGAQIATCAKKNIPALAAAYGLAEIDKAILDALLRGVETGFFDGMAGNVAGIDARLSPDLKDAEIAAFLSSRKPLPRVAIRHTVGLDDTVEGKGGVADAHENAGASYFKLKLSGDPAADAARLARIGKELDTLGRSYKVTLDANEQYADLAALQALMDRLDHDSDLRPIASRLLYVEQPMPRDITRQSPLGSLAARGFIIDEADDSYDAFPAARALGYHGISSKSCKGLYKSIVSATRAAKWSGGGEKFFVTGEDLTCQAGLAVQQDLAMGAFLGVTHAERNGHHYVDGFGDTPAAEAAAFAAAHPDLYADAGQGIRLSIHDGDLLTGSLHAAGFATSVHPDWSALRPLEQPTSLQEQLAEGHHHHHH”: the “soluble on expression in E. coli” value was “not soluble”.
Turning to “MRDPLCDESYLLKTIESNRKFISKRKEKIIGLKADIENGIQRYPRDNQSIIYITFSQMFMYGMNMLLAKYSLGNHPDTMIDDYLDNITYLENCGEEEAGYINLLWMVGLGILLEMDKEVLKRLARVIERQRIEDALMDFLLKACDIGWNHSTTKYEKKNPYEKTVEIIKIALHDKDKEAASKRLEKYMEKEWFKGHYDFGWRNAHKEPGYYGFWSFDTAALAKILGLDDSALKDNNHYPYDLAHYKNGMTFDLSWYSEPREEEVREETVVYGIPGNPLLERIIPGRFHSFVNEIINDYKTLPDEEFWKKYNLKEIWFDVEEYKEDNKDKNLLGTIIVFMLVDKDYILQLDYKEELIDYIENIHNYWPKEEVKLISFELDNDQQYYAYVPKDAEAGSLYEVKVTEVEKIEEV”, the “soluble on expression in E. coli” value is “not soluble”.
